Experiments:
GST-RHAMM fusion protein = target: T1, GST-RHAMM fusion protein (Mus musculus, UniProt Q00547); assay: Competition by peptides with binding of biotin-labelled HA to transblotted GST-RHAMM fusion protein; conditions: biotin-labelled HA pre-incubated for 1 h with 3 mg/ml peptide; Figure 13A
T1 construct: A complete RHAMM cDNA (1.43 kb) was expressed as a fusion protein with pGEX-2T in E. coli HB101; made in house; host or cells: E. coli HB101 (pGEX-2T)
T1 sequence (Q00547 319-794): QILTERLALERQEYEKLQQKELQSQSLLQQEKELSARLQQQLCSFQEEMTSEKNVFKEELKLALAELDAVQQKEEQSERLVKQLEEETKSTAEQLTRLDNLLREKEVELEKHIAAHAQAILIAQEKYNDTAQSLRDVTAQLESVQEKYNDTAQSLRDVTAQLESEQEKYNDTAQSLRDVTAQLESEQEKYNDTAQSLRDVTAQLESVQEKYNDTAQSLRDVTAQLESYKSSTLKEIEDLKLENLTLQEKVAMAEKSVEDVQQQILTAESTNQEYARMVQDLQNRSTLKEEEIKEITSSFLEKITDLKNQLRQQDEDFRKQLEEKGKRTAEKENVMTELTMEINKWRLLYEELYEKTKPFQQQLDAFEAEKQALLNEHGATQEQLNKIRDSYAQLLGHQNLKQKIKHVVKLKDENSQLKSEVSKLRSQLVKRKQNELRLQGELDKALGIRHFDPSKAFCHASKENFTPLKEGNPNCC
Procedure: Transblotted RHAMM fusion protein was stained with a 1:10,000 dilution of biotin-labelled HA that had been pre-incubated for 1 h with 3 mg/ml BSA (Figure 13A, lane 1) , 3 mg/ml peptide^aa401-411 (lane 2) or 3 mg/ml peptide^aa423-432 (lane 3).
GST-RHAMM fusion protein was electrophoresed on 10% SDS-PAGE and transblotted onto a nitrocellulose membrane. The membrane was cut into 3 strips and each was stained with 1:3000 diluted biotin-labelled HA in the presence of 3 mg/ml BSA, 3 mg/ml peptide^aa401-411 and 3 mg/ml peptide^aa423-432, respectively. The other steps were the same as described in immunoblots.

[1] = Hyaluronan-Sepharose affinity chromatography of peptides; type: binding; conditions: 0.15 M NaCl in PBS; Figure 13B
Procedure: To further test the inventor's HA-binding motif model, a number of synthetic peptides were prepared and their HA-binding ability was determined using HA-sepharose. A tyrosine residue was added to one end of each synthetic peptide for convenient spectrophotometric quantitation.
HA-Sepharose affinity gel was prepared according to the manufacturer's instruction. […]
Hyaluronan (Sigma) was coupled to AH-Sepharose 4B (Pharmacia) according to the manufacturer's instructions, resulting in an HA-Sepharose gel. Peptides, ordered from Coast Scientific (San Diego) were HPLC purified. These and randomized peptides, whose sequence was generated by computer, were applied to HA-Sepharose in the presence of 0.15 M NaCl in PBS buffer. Unbound peptides were removed by extensive washing with the same buffer. The amounts of peptides applied and that removed were determined by measuring optical density (O.D.) at 214 nm.

## K^423L R S Q L V K R K^432 (KLKSQLVKRK) [peptide^aa423-432]
GST-RHAMM fusion protein
  blocking of the binding of biotin-labelled HA to expressed GST-RHAMM fusion protein: blocked
[1]
  binding to HA-Sepharose: efficiently bound
